Sequences and labels used below:
B1: PRT-334 (protein)
chain: MTITSVWTKGVTPPTPEDFRENNEDVLHAPYVANQGWYDITKTFDGKDNLLCGAATAGNMLHWWFDQNKEEIERYLKKHPEKQKIIFGNQELFDVKAAIDTKDSQTNSKLFDYFRDKAFPGLSARQLGVFPDLVLDMFINGYYLNLGKTQSTDVNRPYQDKDKRGGIFDAVFTRGVQTTLLTARHDLKNKGLNEISDLIKQELTEGKALALSHTYANVRINHVINLWGADFDAEGELIAIYVTDSDANPSIGMKKYFVGRNANGKVAISAKKIEGDNIGAQVLGLFTLSTGQDIWQKLS
B2: PRT-336 (protein)
chain: B1 chain with G88N
B3: PRT-344 (protein)
chain: B1 chain with V32L, T43A, G121N, F130M, V176D, R219S, I238E, N263H, I294Q
B4: PRT-335 (protein)
chain: B1 chain with I294Q
B5: PRT-343 (protein)
chain: B1 chain with V32L, T43A, G121N, F130M, V176D, R219S, I238E, N263H
B6: PRT-342 (protein)
chain: B1 chain with V32L, T43A, D112N, G121N, F130M, V176D, R219S, E236N, I238E, N263H
B7: PRT-350 (protein)
chain: MSQTEDSESLQRLRDIEDFQAEKKDQNVVYTKWLDGVDVKDHDFRKIVDGNSAYYATPLLNGRGWYDINKDFNRDSDKCAAAVAANMFHYWLDINRDNVDRFLRQNPEKHGIIELPDGQLKLSDFLNTYESDHGYRDKSKLFDFISENFNGPVWTDKLLDNYINGYAYNYKYGRTIEDPTKNTSKINFFKEVFNEKILTNNHSIRNQNEFSVLLIEALYTGKAIGLSYGPAGLRHSLGHIISVWGADLDADGNVVAIYVTDSDDKKLTIGDERVGLKRYKISTDDENRLRLTAYEETHNTGGQVRGLWTLDTGKYAWADYFDKTEQTGTDQAEQ
B8: PRT-352 (protein)
chain: B7 chain with D25M, W65F, Y170S, S236G, V304I
B9: PRT-367 (protein)
chain: B7 chain with K24E, D25K, S76N, I94R, H133D, E147N, P179S, I215S, N287G, Y315Q
B10: PRT-359 (protein)
chain: B7 chain with S52I, W65L, I94R, H133D, F210L, I215S, N287G, Y315Q
B11: PRT-351 (protein)
chain: B7 chain with D25M, W65F, V304I
B12: PRT-358 (protein)
chain: B7 chain with S52I, I94R, H133D, N287G, Y315Q
B13: PRT-366 (protein)
chain: MSQTEDSESLQRLRDIEDFQAEKEKQNVVYTKWLDGVDVKDHDFRKIVDGNSAYYATPLLNGRGFYDINKDFNRDNDKCAAAVAANMFHYWLDRNRDNVDRFLRQNPEKHGIIELPDGQLKLSDFLNTYESDDGYRDKSKLFDFISNNFNGPVWTDKLLDNYINGYAYNYKYGRTIEDSTKNTSKINFFKEVFNEKILTNNHSIRNQNEFSVLLSEALYTGKAIGLSYGPAGLRHSLGHIISVWGADLDADGNVVAIYVTDSDDKKLTIGDERVGLKRYKISTDDEGRLRLTAYEETHNTGGQVRGLWTLDTGKQAWADYFDKTEQTGTDQAEQ

Where a chain is given by its changes, count along the chain named.

This data set addresses pooled human IgG (human IgG1,2,3 and 4).
Take B1: the Enzyme Activity Endpoint Assay (purified): Fab'2 amounted to 59 ng/µL, the Enzyme Activity Endpoint Assay (purified): Fc worked out at 257 ng/µL, the Enzyme Activity Endpoint Assay (purified): IgG amounted to 154 ng/µL and the Enzyme Activity Endpoint Assay (purified): scIgG came out at 738 ng/µL.

B2 displayed an Enzyme Activity Endpoint Assay (purified): Fab'2 of 50 ng/µL, an Enzyme Activity Endpoint Assay (purified): Fc of 264 ng/µL, an Enzyme Activity Endpoint Assay (purified): IgG of 370 ng/µL and an Enzyme Activity Endpoint Assay (purified): scIgG of 965 ng/µL.

As to B3, the Enzyme Activity Endpoint Assay (purified): Fab′2 turned out to be 562 ng/µL, the Enzyme Activity Endpoint Assay (purified): Fc came to 335 ng/µL, the Enzyme Activity Endpoint Assay (purified): IgG is 0 ng/µL and the Enzyme Activity Endpoint Assay (purified): scIgG turned out to be 218 ng/µL.

On to B4, for which the Enzyme Activity Endpoint Assay (purified): Fab'2 was found to be 38 ng/µL, the Enzyme Activity Endpoint Assay (purified): Fc was 154 ng/µL, the Enzyme Activity Endpoint Assay (purified): IgG was 74 ng/µL and the Enzyme Activity Endpoint Assay (purified): scIgG was 514 ng/µL.

B5: the Enzyme Activity Endpoint Assay (purified): Fab'2 was found to be 154 ng/µL, the Enzyme Activity Endpoint Assay (purified): Fc turned out to be 266 ng/µL, the Enzyme Activity Endpoint Assay (purified): IgG stood at 129 ng/µL and the Enzyme Activity Endpoint Assay (purified): scIgG amounted to 682 ng/µL.

The protein B6 gave an Enzyme Activity Endpoint Assay (purified): Fab'2 of 15 ng/µL, an Enzyme Activity Endpoint Assay (purified): Fc of 209 ng/µL, an Enzyme Activity Endpoint Assay (purified): IgG of 206 ng/µL and an Enzyme Activity Endpoint Assay (purified): scIgG of 841 ng/µL.

The protein B7 returned an Enzyme Activity Endpoint Assay (purified): Fab'2 of 520 ng/µL, an Enzyme Activity Endpoint Assay (purified): Fc of 243 ng/µL, an Enzyme Activity Endpoint Assay (purified): IgG of 668 ng/µL and an Enzyme Activity Endpoint Assay (purified): scIgG of 200 ng/µL.

In the case of B8, the Enzyme Activity Endpoint Assay (purified): Fab′2 turned out to be 229 ng/µL, the Enzyme Activity Endpoint Assay (purified): Fc was 302 ng/µL, the Enzyme Activity Endpoint Assay (purified): IgG was 281 ng/µL and the Enzyme Activity Endpoint Assay (purified): scIgG turned out to be 599 ng/µL.

With B9, the Enzyme Activity Endpoint Assay (purified): Fab'2 was 351 ng/µL, the Enzyme Activity Endpoint Assay (purified): Fc amounted to 361 ng/µL, the Enzyme Activity Endpoint Assay (purified): IgG was 100 ng/µL and the Enzyme Activity Endpoint Assay (purified): scIgG was 518 ng/µL.

The protein B10 registered an Enzyme Activity Endpoint Assay (purified): Fab'2 of 260 ng/µL, an Enzyme Activity Endpoint Assay (purified): Fc of 340 ng/µL, an Enzyme Activity Endpoint Assay (purified): IgG of 202 ng/µL and an Enzyme Activity Endpoint Assay (purified): scIgG of 677 ng/µL.

In turn, B11 displayed an Enzyme Activity Endpoint Assay (purified): Fab'2 of 37 ng/µL, an Enzyme Activity Endpoint Assay (purified): Fc of 191 ng/µL, an Enzyme Activity Endpoint Assay (purified): IgG of 86 ng/µL and an Enzyme Activity Endpoint Assay (purified): scIgG of 638 ng/µL.

The protein B12 returned an Enzyme Activity Endpoint Assay (purified): Fab'2 of 8 ng/µL, an Enzyme Activity Endpoint Assay (purified): Fc of 90 ng/µL, an Enzyme Activity Endpoint Assay (purified): IgG of 86 ng/µL and an Enzyme Activity Endpoint Assay (purified): scIgG of 375 ng/µL.

In turn, B13 came in with an Enzyme Activity Endpoint Assay (purified): Fab'2 of 0 ng/µL, an Enzyme Activity Endpoint Assay (purified): Fc of 122 ng/µL, an Enzyme Activity Endpoint Assay (purified): IgG of 777 ng/µL and an Enzyme Activity Endpoint Assay (purified): scIgG of 472 ng/µL.

Values taken from patent US20250027068.
